Results reported in US20210284711A1 (KAHR MEDICAL, published 2021).

Target: T1, human PDL1 (overexpressed on DLD1-PDL1 cells) (human, UniProt Q9NZQ7 19-290)
T1 construct: whole, on cells; also called B7H1; CD274
Assay: flow cytometry on DLD1-PDL1 cells, GMFI plotted against DSP105 conc. [ug/ml] (two-fold steps)
From the text: Following, GMFI values were used to create a binding curve graph with a GraphPad Prism software (FIG. 10C). Taken together, both sides of the His-tagged DSP105_V17 (SEQ ID NO: 97), fusion protein, bind their relevant counterparts overexpressed on the surface of cells.

T1 sequence (Q9NZQ7 19-290): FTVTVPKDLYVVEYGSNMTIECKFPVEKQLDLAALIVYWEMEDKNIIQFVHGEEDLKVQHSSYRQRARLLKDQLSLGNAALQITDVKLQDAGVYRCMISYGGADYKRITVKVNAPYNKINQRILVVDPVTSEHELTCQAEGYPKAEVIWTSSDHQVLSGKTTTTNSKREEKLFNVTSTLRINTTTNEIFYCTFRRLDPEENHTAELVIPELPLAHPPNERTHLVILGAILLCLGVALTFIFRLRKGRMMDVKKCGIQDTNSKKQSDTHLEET

B1: N-terminal His-tagged DSP105_V17 (PD1-4-1BBL variant fusion protein) (other)
chain: HHHHHHDSPDRPWNPPTFSPALLVVTEGDNATFTCSFSNTSESFVLNWYRMSPSNQTDKLAAFPEDRSQPGQDSRFRVTQLPNGRDFHMSVVRARRNDSGTYLCGAISLAPKAQIKESLRAELRVTERRAEVPTAHPSPSPRPAGQGSAASPRLREGPELSPDDPAGLLDLRQGMFAQLVAQNVLLIDGPLSWYSDPGLAGVSLTGGLSYKEDTKELVVAKAGVYYVFFQLELRRVVAGEGSGSVSLALHLQPLRSAAGAAALALTVDLPPASSEARNSAFGFQGRLLHLSAGQRLGVHLHTEARARHAWQLTQGATVLGLFRVTPEIPAGLPSPRSE
notes: also called N-terminal His-tagged DSP105_var17
EC50 (read off the curve): ~0.9 µg/mL
